Experimental data from patent US20230304010A1, “COMPOSITIONS AND METHODS FOR TREATING VIRAL INFECTIONS” (priority 2020, published 2023).

B1: Seq28 (LNCOV-20) (peptide)
peptide: KTFLDKFNHEAEDLFPGPKWSAFLKEQSTLAQMYG
modifications: not checked
B2: Seq18 (LNCOV-16) (peptide)
peptide: VEGFNCYFLWRALWRLWRSLWRLLWK
modifications: not checked
B3: Seq33 (LNCOV-18) (peptide)
peptide: EQAKTFLDKFNHEAEDLFLWRALWRLWRSLWRLLWK
modifications: not checked
B4: Seq13 (LNCOV-11) (peptide)
peptide: KVGGNYNYKLWRALWRLWRSLWRLLWK
modifications: not checked
B5: seq14 (LNCOV-12) (peptide)
peptide: GNYNYLYRLLWRALWRLWRSLWRLLWK
modifications: not checked

What was measured:
[1] = biological target: SARS-CoV-2 Spike-Fc, Beta (B1.351/South Africa) variant (SARS-CoV-2), P0DTC2
[2] = biological target: SARS-CoV-2 Spike-Fc, Alpha (B1.1.7/United Kingdom) variant (SARS-CoV-2), P0DTC2
[3] = biological target: SARS-CoV-2 Spike-Fc, Gamma (P1/Brazil) variant (SARS-CoV-2), P0DTC2
[4] = biological target: SARS-CoV-2 Spike-Fc, Epsilon (B1429) variant (SARS-CoV-2), P0DTC2
[5] = biological target: SARS-CoV-2 Spike-Fc, Delta (B1 617 2/India) variant (SARS-CoV-2), P0DTC2
[6] = biological target: ACE2, Q9BYF1; assay: inhibitor screening kit; SARS-CoV-2 Spike:ACE2 (Example 3 assay)
ACE2, Q9BYF1, sequence (Q9BYF1 18-740 limits assumed): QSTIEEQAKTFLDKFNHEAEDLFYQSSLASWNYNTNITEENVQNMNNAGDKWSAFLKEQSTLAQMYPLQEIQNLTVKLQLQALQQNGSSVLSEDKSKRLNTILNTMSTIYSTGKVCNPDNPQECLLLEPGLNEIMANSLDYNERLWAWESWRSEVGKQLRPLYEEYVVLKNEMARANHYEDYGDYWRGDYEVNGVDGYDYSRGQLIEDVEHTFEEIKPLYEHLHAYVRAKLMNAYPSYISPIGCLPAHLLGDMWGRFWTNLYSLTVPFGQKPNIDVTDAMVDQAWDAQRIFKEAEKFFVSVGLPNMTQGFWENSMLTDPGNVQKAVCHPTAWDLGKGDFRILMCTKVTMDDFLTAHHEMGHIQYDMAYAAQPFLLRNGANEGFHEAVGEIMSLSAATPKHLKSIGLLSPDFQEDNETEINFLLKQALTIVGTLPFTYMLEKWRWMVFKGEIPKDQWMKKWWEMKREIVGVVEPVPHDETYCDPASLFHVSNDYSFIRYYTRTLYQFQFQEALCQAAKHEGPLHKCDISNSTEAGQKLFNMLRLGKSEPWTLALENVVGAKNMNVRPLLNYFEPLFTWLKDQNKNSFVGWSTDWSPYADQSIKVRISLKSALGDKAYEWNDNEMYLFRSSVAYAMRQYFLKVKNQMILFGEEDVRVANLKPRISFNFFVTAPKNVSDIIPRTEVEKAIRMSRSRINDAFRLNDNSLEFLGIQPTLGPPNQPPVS

[7] = biological target: ACE2, Q9BYF1; assay: inhibitor screening kit; ACE2:SARS-CoV-2 Spike (Example 4 assay)

Row | Binder | IC50 [1] | IC50 [2] | IC50 [3] | IC50 [4] | IC50 [5] | IC50 [6] | IC50 [7]
1 | B1 | 31.5 nM | 24.6 nM | 41.7 nM | 28.8 nM | 29.2 nM | – | –
2 | B2 | – | – | – | – | – | > 10000 nM | > 10000 nM
3 | B3 | 28.8 nM | 17.8 nM | 20.2 nM | 31.4 nM | 25.7 nM | – | –
4 | B4 | – | – | – | – | – | > 10000 nM | > 10000 nM
5 | B5 | – | – | – | – | – | > 10000 nM | > 10000 nM
